Substrate in this data set: CC(=O)C(=O)O
Put plainly: purified protein. It counts as biochemical, Bacillus subtilis. The conditions noted are these: 50 mM phosphate pH 6.5, 30 °C, no FBP, co-substrate NADH (general LDH assay).

Two proteins from PMC4078008, “Exploring metabolic engineering design principles for the photosynthetic production of lactic acid by Synechocystis sp. PCC6803” (Biotechnology for Biofuels, 2014) can be followed below.

B1: L-LDH of B. subtilis (BsLDH) (Bacillus subtilis subsp. subtilis str. 168) (protein)
chain: MNKHVNKVALIGAGFVGSSYAFALINQGITDELVVIDVNKEKAMGDVMDLNHGKAFAPQPVKTSYGTYEDCKDADIVCICAGANQKPGETRLELVEKNLKIFKGIVSEVMASGFDGIFLVATNPVDILTYATWKFSGLPKERVIGSGTTLDSARFRFMLSEYFGAAPQNVHAHIIGEHGDTELPVWSHANVGGVPVSELVEKNDAYKQEELDQIVDDVKNAAYHIIEKKGATYYGVAMSLARITKAILHNENSILTVSTYLDGQYGADDVYIGVPAVVNRGGIAGITELNLNEKEKEQFLHSAGVLKNILKPHFAEQKVN
notes: codon-optimized gene, pET28b+ NdeI/HindIII, N-terminal His-tag (removal not mentioned), E. coli BL21(DE3), HisTrap-purified
The term Km denotes the substrate concentration at which the rate is half of its maximum. In the case of B1, the Km is 4.34 ± 1.24 mM.

B2: L-LDH of B. subtilis (BsLDH) (Bacillus subtilis subsp. subtilis str. 168; V38R) (protein)
chain: MNKHVNKVALIGAGFVGSSYAFALINQGITDELVVIDRNKEKAMGDVMDLNHGKAFAPQPVKTSYGTYEDCKDADIVCICAGANQKPGETRLELVEKNLKIFKGIVSEVMASGFDGIFLVATNPVDILTYATWKFSGLPKERVIGSGTTLDSARFRFMLSEYFGAAPQNVHAHIIGEHGDTELPVWSHANVGGVPVSELVEKNDAYKQEELDQIVDDVKNAAYHIIEKKGATYYGVAMSLARITKAILHNENSILTVSTYLDGQYGADDVYIGVPAVVNRGGIAGITELNLNEKEKEQFLHSAGVLKNILKPHFAEQKVN
notes: as for B1
Regarding B2, the Km turned out to be 4.00 ± 0.50 mM.
